Measurements published in patent US10100114B2, “Antibodies specific for TROP-2 and their uses” (RINAT NEUROSCIENCE CORP., priority 2011, dated 2018).
Residue numbers refer to the chain shown, from its start. In names and notes the source's numbering stands.

T1: human Trop2-ECD (Homo sapiens, UniProt P09758)
T1 sequence (P09758 27-274 limits assumed): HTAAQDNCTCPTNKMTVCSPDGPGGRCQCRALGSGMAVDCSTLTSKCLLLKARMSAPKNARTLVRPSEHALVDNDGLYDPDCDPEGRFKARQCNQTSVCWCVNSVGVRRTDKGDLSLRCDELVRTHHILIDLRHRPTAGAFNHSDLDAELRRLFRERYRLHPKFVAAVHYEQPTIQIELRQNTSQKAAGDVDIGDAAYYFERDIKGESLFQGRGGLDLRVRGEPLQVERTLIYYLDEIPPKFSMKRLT

T2: human Trop-2-hFc (Homo sapiens, UniProt P09758)
T2 construct: Monomeric Trop-2 extracellular domain prepared from papain digestion of Trop-2-Fc fusion protein
T2 sequence (P09758 27-274 limits assumed): T1 sequence (P09758 27-274 limits assumed)

T3: Human Trop-2-mFc (Homo sapiens, UniProt P09758)
T3 construct: Monomeric Trop-2 extracellular domain prepared from papain digestion of Trop-2-Fc fusion protein
T3 sequence (P09758 27-274 limits assumed): T1 sequence (P09758 27-274 limits assumed)

B1: h7E6SVG-LCQ04/K222R-vc0101: h7E6SVG K222R with light chain LCQ04 tag conjugated with AcLys-vc-PABC-0101 (conjugate)
VH: QVQLQESGPGLVKPSETLSLTCTVSGGSISSYGVHWIRQPPGKGLEWIGVIWTSGVTDYNSALMGRVTISVDTSKNQFSLKLSSVTAADTAVYYCARDGDYDRYTMDYWGQGTLVTVSS
VL: DIVMTQSPDSLAVSLGERATINCRASKSVSTSGYSYMHWYQQKPGQPPKLLIYLASNLESGVPDRFSGSGSGTDFTLTISSLQAEDVAVYYCQHSRELPYTFGQGTKLEIK
B2: h7E6SVG-LCQ03/K222R-vc0101: h7E6SVG K222R with light chain LCQ03 tag (SEQ ID NO: 78) conjugated with AcLys-vc-PABC-0101 (conjugate)
VH: B1 VH
VL: B1 VL
B3: h7E6_SVG: humanized anti-Trop-2 antibody, VL SEQ ID NO: 3, VH SEQ ID NO: 5 (antibody, V domains shown)
VH: B1 VH
VL: B1 VL
B4: h6G11: humanized anti-Trop-2 antibody, VL SEQ ID NO: 10, VH SEQ ID NO: 11 (antibody, V domains shown)
VH: QVQLVQSGAEVKKPGASVKVSCKASGYTFTSYWINWVRQAPGQGLEWMGNIYPSDSYSNYNQKFKDRVTMTRDTSTSTVYMELSSLRSEDTAVYYCARGSSFDYWGQGTLVTVSS
VL: EIVLTQSPATLSLSPGERATLSCRASQTIGTSIHWYQQKPGQAPRLLIYYASESISGIPARFSGSGSGTDFTLTISSLEPEDFAVYYCQQSNSWPFTFGQGTKLEIK
B5: h6G11_FKG_SF: humanized anti-Trop-2 antibody, VL SEQ ID NO: 12, VH SEQ ID NO: 13 (antibody, V domains shown)
VH: B4 VH with Y52F, Q62K, S101G
VL: B4 VL with Q89S, N92F

Assays:
[1] = system: SW620 cells (Trop-2 non-expressing); assay: Cytotoxicity of ADCs (CellTiter-Glo), SW620; assay type: cell-based; settings: Table 13; SW620, Trop2 expression −; 96 hours; concentration of total Ab
Procedure: Target expressing (A431, BxPC3, CAPAN-2 and Colo205) or non-expressing (SW620) cells were seeded on white walled clear bottom plates at 2000 cells/well for 24 hours before treatment. Cells were treated with 4 fold serially diluted antibody-drug conjugates in triplicates. Cell viability was determined by CellTiter-Glo® Luminescent Cell Viability Assay 96 (Promega, Madison Wis.) 96 hours after treatment. Relative cell viability was determined as percentage of untreated control. IC50 was calculated by Prism software.
2-methylalanyl-N-[(3R,4S,5S)-3-methoxy-1-{(2S)-2-[(1R,2R)-1-methoxy-2-methyl-3-oxo-3-{[(1S)-2-phenyl-1-(1,3-thiazol-2-yl)ethyl]amino}propyl]pyrrolidin-1-yl}-5-methyl-1-oxoheptan-4-yl]-N-methyl-L-valinamide is a novel auristatin, as described in U.S. Application Nos. 61/561,255 and 61/676,423. Method of conjugating Trop-2 antibodies using transglutaminase tags is described in Example 9. Target expressing or non-expressing (SW620) cells were seeded on white walled clear bottom plates at 2000 (A431, BxPC3, NCI-H292, NCI-H1650, MDA-MB-468 and SW620), 2500 (Calu-3) or 3000 (OVCAR3 and SKBR3) cells per well for 24 hours before treatment. Cells were treated with 4 fold serially diluted antibody-drug conjugates in triplicates. Cell viability was determined by CellTiter-Glo® Luminescent Cell Viability Assay 96 (Promega, Madison, Wis.) 96 hours after treatment. Relative cell viability was determined as percentage of untreated control. IC50 was calculated by GraphPad Prism 5 software and expressed as concentration (nM) of total Ab.

BxPC3 xenograft = assay: In vivo efficacy of humanized Trop-2 ADCs, pancreatic tumor BxPC3 xenograft model; set-up: species or system CB17/SCID mice; settings: single dose, tail vein; FIGS. 9A-9C
Procedure: In vivo efficacy studies of Trop-2 ADCs were performed with target-expressing BxPC3 xenograft model. Two million BxPC3 pancreatic cancer cells were implanted subcutaneously into 5-8 weeks old CB17/SCID mice until the tumor sizes reached between 300-400 mm^3. […] Tumor volume was measured once a week by a Caliper device and calculated with the following formula: Tumor volume=(length×width^2)/2. Studies were terminated before their tumor volumes reached 2000 mm^3.

Colo205 xenograft = assay: In vivo efficacy of Trop-2 ADCs, colorectal tumor Colo205 xenograft model; set-up: species or system nu/nu mice; settings: single dose of 6 mg/kg, tail vein; FIG. 10
Procedure: In vivo efficacy study of Trop-2 ADCs was performed with target-expressing colo205 xenograft model. Three millions of colo205 colon cancer cells were implanted subcutaneously into 5-8 weeks old nu/nu mice until the tumor sizes reached ˜300 mm^3. […] Tumor volume is measured once a week by a Caliper device and calculated with the following formula: Tumor volume=(length×width^2)/2. Studies were terminated before their tumor volumes reached 2000 mm^3.

[2] = system: cynomolgus monkey Trop-2-hFc; assay: Biacore SPR affinity of chimeric and humanized 7E6 Fab, cynomolgus Trop-2; assay type: binding; settings: recombinant Fab fragments injected over captured cynomolgus monkey Trop-2-hFc
Description: (§1) The human Trop-2-hFc or cynomolgus monkey Trop-2-hFc proteins were captured on the CM5 EDA chip 37 sensor surface coupled with anti-human Fc.

SW620 (Trop-2 −) cells = assay: Flow cytometry binding, SW620 cells; assay type: cell-based; settings: 1 ug antibody
Procedure: For A431 cell staining, 200,000 cells were incubated with 0.5 ug antibody in 100 uL binding buffer (PBS (Phosphate Buffered Saline)+0.5% BSA (Bovine Serum Albumin)), followed by incubation with Dylight488-conjugated goat anti-human (Fab′)2-specific secondary antibody from Jackson immunoresearch Laboratories (West Grove, Pa.). For Colo205 and SW620 cells, 300,000 cells were used with 1 ug of primary antibody, followed by AlexaFluor 647 anti-human (Fab′)2-specific secondary antibody from Jackson immunoresearch Laboratories (West Grove, Pa.).
Similar to Example 7a), binding of chimeric mouse and humanized anti-Trop-2 6G11 antibodies (expressed in human IgG1 subtype) were assessed on Trop-2 expressing (A431 and Colo205) and non-expressing (SW620) cells by flow cytometry. 300,000 cells were used with 1 ug of primary antibody, followed by AlexaFluor 647 anti-human (Fab′)2-specific secondary antibody.

human Trop2-ECD = biological target: T1, human Trop2-ECD; assay: Proteon XPR36 SPR of Fab/human Trop2-ECD interactions; assay type: binding; settings: amine-coupled Fab; monovalent human Trop2-ECD 6, 30 and 150 nM; 25° C., pH 7.4
Procedure: Analysis of Fab/human Trop2-ECD (Extracellular Domain) interactions was performed using a Bio-Rad Proteon XPR36 Surface Plasmon Resonance (SPR) biosensor (Bio-Rad, Hercules, Calif.) equipped with a GLC sensor chip. The assay temperature was 25° C., and the assay buffer was 10 mM Sodium Phosphate, 150 mM NaCl, 0.05% Tween-20, pH 7.4. An array of amine-coupled Fabs was prepared using the methodology described in Abdiche et al. (Anal. Biochem., 411: 139-151 (2011)). In each analysis cycle, monovalent human Trop2-ECD antigen was flowed at 30 μL/min over the immobilized Fabs for 3 minutes followed by a buffer wash for 15 minutes to monitor dissociation of the Fab/Trop2 complex. The sensor surface was regenerated between analysis cycles, using three 18-second injections of a 2:1 mixture (by volume) of Pierce IgG Elution buffer:4 M NaCl (Pierce, Rockford, Ill.). Binding and regeneration cycles were repeated at human Trop2-ECD concentrations of 6, 30 and 150 nM. The resulting data were fit to a 1:1 Langmuir binding model using the Proteon evaluation software.

human Trop-2-hFc = biological target: T2, human Trop-2-hFc; assay: Biacore SPR affinity of chimeric and humanized 7E6 Fab, human Trop-2; assay type: binding; settings: recombinant Fab fragments injected over captured human Trop-2-hFc
Description: as §1

Human Trop-2-mFc = biological target: T3, Human Trop-2-mFc; assay: Biacore SPR affinity of humanized 6G11 Fab; assay type: binding; settings: Fab fragments injected over captured human Trop-2-mFc
Procedure: The affinities of humanized 6G11 antibodies were measured on a surface plasmon resonance Biacore™ 2000 biosensor equipped with a research-grade CM5 sensor chip (Biacore™ AB, Uppsala, Sweden—now GE Healthcare). Human Trop-2-mFc protein was captured on the CM5 chip coupled with anti-mouse Fc. Human 6G11_WT or Human 6G11_FKG_SF chimeric Fab fragments were injected as 3 fold dilution series.

Molecule | IC50 [1] [nM] | % positive (SW620 (Trop-2 −) cells; Table 11, 300,000 cells) [%] | MFI (SW620 (Trop-2 −) cells; Table 11, 300,000 cells) | ka (Human Trop-2-mFc) [M⁻¹ s⁻¹] | kd (Human Trop-2-mFc) [s⁻¹] | also measured
B1 | > 267 | – | – | – | – | tumor response, BxPC3 xenograft (BxPC3 xenograft): tumor regression
B2 | > 267 | – | – | – | – | tumor response, Colo205 xenograft (Colo205 xenograft): tumor regression
B3 | – | – | – | – | – | ka [2]: 265000 M⁻¹ s⁻¹; kd [2]: 0.00189 s⁻¹; % positive (SW620 (Trop-2 −) cells; Table 10, 300,000 cells): 2.4%; MFI (SW620 (Trop-2 −) cells; Table 10, 300,000 cells): 139; ka (human Trop2-ECD): 170000 M⁻¹ s⁻¹; kd (human Trop2-ECD): 0.00069 s⁻¹; ka (human Trop-2-hFc): 97600 M⁻¹ s⁻¹; kd (human Trop-2-hFc): 0.000435 s⁻¹
B4 | – | 3.9 | 154 | 360000 | 0.0096 | –
B5 | – | 2.5 | 157 | 640000 | 0.00038 | –
